T1: MBP-OsRFL (Oryza sativa L., UniProt Q0JAI1 1-389)
T1 sequence: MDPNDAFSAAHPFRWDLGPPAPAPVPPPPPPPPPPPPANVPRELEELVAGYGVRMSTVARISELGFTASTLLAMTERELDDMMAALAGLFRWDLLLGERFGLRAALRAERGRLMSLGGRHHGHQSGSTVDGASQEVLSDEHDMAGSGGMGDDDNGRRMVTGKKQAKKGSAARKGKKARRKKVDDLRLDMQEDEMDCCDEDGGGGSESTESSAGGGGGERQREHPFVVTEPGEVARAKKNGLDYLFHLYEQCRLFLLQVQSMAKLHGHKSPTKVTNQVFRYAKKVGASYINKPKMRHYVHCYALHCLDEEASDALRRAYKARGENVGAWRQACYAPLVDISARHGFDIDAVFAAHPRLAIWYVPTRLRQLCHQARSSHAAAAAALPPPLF

B1: OsMOC1 promoter probe (EMSA/OsMOC1) (dsDNA)
DNA 1: TGGTGTTACCACTGGCTTGATCA
DNA 2: TGATCAAGCCAGTGGTAACACCA
B2: OsRFL promoter NRE probe (EMSA/OsRFL-3) (dsDNA)
DNA 1: TAATACTGTTGTTTGATACTAATGAGTCAAGTTG
DNA 2: CAACTTGACTCATTAGTATCAAACAACAGTATTA

Assays:
MBP-OsRFL = target: T1, MBP-OsRFL; experiment: EMSA
MBP-OsNLP3 = MBP-OsNLP3 (Oryza sativa L., UniProt Q5NB82 1-938); experiment: EMSA
Chain of MBP-OsNLP3 (Q5NB82 whole entry): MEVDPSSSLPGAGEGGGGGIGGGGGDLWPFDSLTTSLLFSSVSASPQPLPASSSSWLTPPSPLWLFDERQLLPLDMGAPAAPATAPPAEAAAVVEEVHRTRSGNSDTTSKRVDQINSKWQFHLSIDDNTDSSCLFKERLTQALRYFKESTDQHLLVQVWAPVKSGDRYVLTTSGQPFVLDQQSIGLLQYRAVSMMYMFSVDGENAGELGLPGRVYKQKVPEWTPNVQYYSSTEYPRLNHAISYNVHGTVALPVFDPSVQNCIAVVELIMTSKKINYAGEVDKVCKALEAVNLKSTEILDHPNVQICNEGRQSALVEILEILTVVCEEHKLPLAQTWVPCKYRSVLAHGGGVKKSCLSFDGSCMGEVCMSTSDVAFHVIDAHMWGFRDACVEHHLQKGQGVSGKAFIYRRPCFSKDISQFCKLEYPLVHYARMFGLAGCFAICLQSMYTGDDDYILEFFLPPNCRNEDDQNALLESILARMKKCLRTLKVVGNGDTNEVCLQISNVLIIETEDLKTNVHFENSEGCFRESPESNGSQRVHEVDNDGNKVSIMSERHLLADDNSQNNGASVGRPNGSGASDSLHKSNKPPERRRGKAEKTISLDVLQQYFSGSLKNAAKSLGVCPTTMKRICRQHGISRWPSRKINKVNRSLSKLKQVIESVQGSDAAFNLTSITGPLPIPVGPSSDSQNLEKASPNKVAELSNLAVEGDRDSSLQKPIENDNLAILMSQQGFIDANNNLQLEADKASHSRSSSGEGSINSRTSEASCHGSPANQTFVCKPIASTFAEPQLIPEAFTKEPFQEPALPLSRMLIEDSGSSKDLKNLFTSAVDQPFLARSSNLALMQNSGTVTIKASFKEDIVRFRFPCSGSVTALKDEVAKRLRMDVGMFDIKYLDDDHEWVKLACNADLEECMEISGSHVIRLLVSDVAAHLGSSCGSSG

Binder	binding result (MBP-OsRFL)	binding result (MBP-OsNLP3)
B1	binds	–
B2	–	binds

— article doi:10.1101/2023.02.28.530553
